Test: Phase 1 open label, multi-arm, multi-center study of MK-4830 as monotherapy or in combination with pembrolizumab (NCT03564691): safety and tolerability
Type: in vivo, human

Q: What does the source list for “MK-4830: anti-ILT4 antibody; light chain SEQ ID NO:5, heavy chain SEQ ID NO:10 (Table 4)”?
A: Grade 3 drug-related AE (1600 mg dose level, MK-4830 monotherapy cohort): one episode of transient Grade 3 blood pressure increase; participants with one or more drug-related AEs (51 treated participants (monotherapy and pembrolizumab combination pooled), preliminary data, majority Grade 1): 51%; Grade 4 or 5 drug-related AEs or SAEs (all participants (51 treated), preliminary data): no Grade 4 or 5 drug-related AEs or SAEs; target dose limiting toxicity (DLT) rate (participants with advanced solid tumors, MK-4830 monotherapy up to 1600 mg and MK-4830 up to 800 mg plus pembrolizumab, May 10, 2019 data cutoff): not reached in any of the cohorts
